Results published in patent publication US8465945B2, “Method for production and use of mite group 1 proteins” (Merck Patent GmbH, priority 1999, dated 2013).

What was measured:
[1] = test system: anti-Der f 1 MAb 6A8 (capture) and anti-Der f 1 MAb 4C1 (detection); test: Monoclonal Capture ELISA; type: binding
Protocol: Assays were carried out as follows. A microtiter plate as described in Example 5 was coated overnight at 4° C. with 100 ng/well of anti-Der f 1 protein monoclonal antibody 6A8, denoted herein as anti-Der f 1 MAb 6A8, provided by Dr. Martin Chapman. The plate was washed in the manner described above. The following proteins were then added to wells, having been diluted in Assay Buffer in a 2-fold dilution series, from 0.75 to 50 ng/well: Heska native Derf1, P. pastoris-expressed PDerf1303b, and E. coli-expressed PDerf1303c. After incubation for 1 hour at room temperature, plates were washed as described in Example 5. Then 100 μl per well of a 1:1000 dilution in Assay Buffer of biotinylated anti-Der f 1 monoclonal antibody 4C1, also denoted anti-Der f 1 MAb 4C1, provided by Dr. Martin Chapman, was added for 1 hour at room temperature. Plates were washed, streptavidin-HRP conjugate was added, and plates were developed as described in Example 5.

[2] = test system: IgE from mite-allergic dog sera; test: ELISA, binding of IgE from dog sera to coated Der f 1 proteins or mite extracts, detected with FcεR1α-biotin
Protocol: Native or recombinant Der f 1 proteins in 100 μl CBC buffer (50 mM sodium carbonate, pH 9.6) were coated onto wells (100 ng per well) of Immulon II microtiter plates (available from Dynex Technologies, Chantilly, Va.) by incubation at 4° C., covered, overnight. Excess fluid was removed and wells were blocked with 200 μl Assay Buffer (4% fetal calf serum (available from Summit Laboratories, Fort Collins, Colo.) in phosphate buffered saline (PBS, recipe in Sambrook, ibid.), plus 0.05% Tween-20 (available from Sigma, St. Louis, Mo.)) for one hour at room temperature. Plates were then washed for 4 cycles on an automatic plate washer (Ultrawash, available from Dynatech Laboratories) using PBS with 0.05% Tween-20. […] Control wells were treated identically except that no serum was added. Plates were then washed as described above. Biotinylated human IgE receptor alpha chain (FcεR1α-biotin) (100 μl of 1.3 ng/ml) prepared as described in U.S. Pat. No. 5,945,294, ibid., was added and incubated for one hour at room temperature. After this incubation, plates were washed as described above. Streptavidin-horseradish peroxidase conjugate (0.5 mg/ml, available from KPL Labs, Gaithersburg, Md.) was added at a 1:5000 dilution in Assay Buffer for one hour at room temperature, after which plates were washed as described above. TMB Peroxidase substrate system, 2 part (available from KPL Labs, #0-76-00), added at 100 μl per well, was used according to the manufacturer's directions. The color reaction was allowed to proceed until good color development was reached (about 10-15 min); then the reaction was stopped with 100 μl per well of 1 M phosphoric acid. Bound IgE was determined by measuring absorbance (Optical Density, or OD) at 450 nm (nanometers) using an ELISA plate reader (such as Spectramax”, Molecular Devices, Sunnyvale, Calif.). Background OD readings in the control wells were subtracted from all numbers. Results are reported in Tables 1, 2 and 3 as OD multiplied by 1000. OD numbers greater than 100 are considered to be positive for a reaction with IgE. P. pastoris-expressed proteins are denoted in the Tables as Pichia expressed proteins.

[3] = test system: IgE from mite-allergic or normal human sera; test: ELISA, binding of IgE from human sera to coated Der f 1 proteins or mite extracts, detected with FcεR1α-biotin

B1: PDerf1303c: Recombinant pro-form of Der f 1 (SEQ ID NO:35) expressed in E. coli from nDerf1909c, refolded from inclusion bodies (protein, listed as Dermatophagoides farinae)
chain: RPASIKTFEEFKKAFNKNYATVEEEEVARKNFLESLKYVEANKGAINHLSDLSLDEFKNRYLMSAEAFEQLKTQFDLNAETSACRINSVNVPSELDLRSLRTVTPIRMQGGCGSCWAFSGVAATESAYLAYRNTSLDLSEQELVDCASQHGCHGDTIPRGIEYIQQNGVVEERSYPYVAREQRCRRPNSQHYGISNYCQIYPPDVKQIREALTQTHTAIAVIIGIKDLRAFQHYDGRTIIQHDNGYQPNYHAVNIVGYGSTQGVDYWIVRNSWDTTWGDSGYGYFQAGNNLMMIEQYPYVVIM
- OD, protein captured by MAb 6A8 and detected by MAb 4C1 ([1]; 0.75 ng protein per well): 136 OD
- OD, protein captured by MAb 6A8 and detected by MAb 4C1 ([1]; 1.5 ng protein per well): 268 OD
- OD, protein captured by MAb 6A8 and detected by MAb 4C1 ([1]; 2.5 ng protein per well): 1372 OD
- OD, protein captured by MAb 6A8 and detected by MAb 4C1 ([1]; 3.1 ng protein per well): 503 OD
- OD, protein captured by MAb 6A8 and detected by MAb 4C1 ([1]; 6.25 ng protein per well): 890 OD
- OD, protein captured by MAb 6A8 and detected by MAb 4C1 ([1]; 25 ng protein per well): 1770 OD
- OD, protein captured by MAb 6A8 and detected by MAb 4C1 ([1]; 50 ng protein per well): 1983 OD
- OD, bound IgE ([2]; Assay Number 1, serum dog pool): 615 OD multiplied by 1000
- OD, bound IgE ([2]; Assay Number 1, serum dog-1): 0 OD multiplied by 1000
- OD, bound IgE ([2]; Assay Number 1, serum dog-2): 258 OD multiplied by 1000
- OD, bound IgE ([2]; Assay Number 1, serum dog-3): 45 OD multiplied by 1000
- OD, bound IgE ([2]; Assay Number 2, dog sera pool A 146): 489 OD multiplied by 1000
- OD, bound IgE ([2]; Assay Number 2, dog sera pool KS338): 68 OD multiplied by 1000
- dog serum samples bound, of those that bound to native Der f 1 proteins ([2]; Table 1): 1 of 2
- OD, bound IgE ([3]; Assay Number 1, serum human 1916): 18 OD multiplied by 1000
- OD, bound IgE ([3]; Assay Number 1, serum human3848): 2291 OD multiplied by 1000
- OD, bound IgE ([3]; Assay Number 1, serum human 3958): 147 OD multiplied by 1000
- OD, bound IgE ([3]; Assay Number 1, serum human 3960): 1442 OD multiplied by 1000
- OD, bound IgE ([3]; Assay Number 1, serum human 3961): 67 OD multiplied by 1000
- OD, bound IgE ([3]; Assay Number 1, serum human 3987): 1416 OD multiplied by 1000
- OD, bound IgE ([3]; Assay Number 1, serum human 4289): 29 OD multiplied by 1000
- OD, bound IgE ([3]; Assay Number 1, serum human 4467): 236 OD multiplied by 1000
- OD, bound IgE ([3]; Assay Number 1, serum human 5207): 1902 OD multiplied by 1000
- OD, bound IgE ([3]; Assay Number 1, serum human pool): 883 OD multiplied by 1000
- OD, bound IgE ([3]; Assay Number 2, serum Heska human B): 0 OD multiplied by 1000
- OD, bound IgE ([3]; Assay Number 2, serum Heska human C): 4 OD multiplied by 1000
- OD, bound IgE ([3]; Assay Number 2, serum Heska human D): 0 OD multiplied by 1000
- OD, bound IgE ([3]; Assay Number 2, serum Heska human E): 10 OD multiplied by 1000
- OD, bound IgE ([3]; Assay Number 2, serum Heska human F): 0 OD multiplied by 1000
- OD, bound IgE ([3]; Assay Number 2, serum Heska human G): 0 OD multiplied by 1000
- OD, bound IgE ([3]; Assay Number 2, serum Heska human H): 0 OD multiplied by 1000
- OD, bound IgE ([3]; Assay Number 2, serum Heska human I): 1 OD multiplied by 1000
- OD, bound IgE ([3]; Assay Number 2, serum Heska human J): 0 OD multiplied by 1000
- OD, bound IgE ([3]; Assay Number 2, serum Heska human K): 0 OD multiplied by 1000
- OD, bound IgE ([3]; Assay Number 2, serum Heska human L): 0 OD multiplied by 1000
- OD, bound IgE ([3]; Assay Number 2, serum Heska human M): 0 OD multiplied by 1000
- OD, bound IgE ([3]; Assay Number 2, serum Heska human N): 24 OD multiplied by 1000
- OD, bound IgE ([3]; Assay Number 2, serum Heska human O): 2 OD multiplied by 1000
- OD, bound IgE ([3]; Assay Number 2, serum Heska human P): 0 OD multiplied by 1000
- OD, bound IgE ([3]; Assay Number 2, serum Heska human Q): 0 OD multiplied by 1000
- OD, bound IgE ([3]; Assay Number 2, serum Heska human R): 0 OD multiplied by 1000
- OD, bound IgE ([3]; Assay Number 2, serum human 1916): 21 OD multiplied by 1000
- OD, bound IgE ([3]; Assay Number 2, serum human 3848): 2378 OD multiplied by 1000
- OD, bound IgE ([3]; Assay Number 2, serum human 3958): 247 OD multiplied by 1000
- OD, bound IgE ([3]; Assay Number 2, serum human 3960): 944 OD multiplied by 1000
- OD, bound IgE ([3]; Assay Number 2, serum human 3961): 46 OD multiplied by 1000
- OD, bound IgE ([3]; Assay Number 2, serum human 3987): 1477 OD multiplied by 1000
- OD, bound IgE ([3]; Assay Number 2, serum human 4289): 47 OD multiplied by 1000
- OD, bound IgE ([3]; Assay Number 2, serum human 4467): 277 OD multiplied by 1000
- OD, bound IgE ([3]; Assay Number 2, serum human 5207): 2122 OD multiplied by 1000
- OD, bound IgE ([3]; Assay Number 2, serum human pool): 1161 OD multiplied by 1000
- reactivity: share of human serum samples reactive to native Der f 1 proteins that are also reactive to the recombinant protein ([3]; Table 1, 9 human samples (8 sera and pool), OD numbers greater than 100 positive): 78%
- reactivity: share of human serum samples reactive to native Der f 1 proteins that are also reactive to the recombinant protein ([3]; Table 2, 10 human serum samples): 70%

B2: PDerf1223b: Recombinant mature form of Der f 1 (SEQ ID NO:32) expressed by P. pastoris from nDerf1669b (protein, listed as Dermatophagoides farinae)
chain: TSACRINSVNVPSELDLRSLRTVTPIRMQGGCGSCWAFSGVAATESAYLAYRNTSLDLSEQELVDCASQHGCHGDTIPRGIEYIQQNGVVEERSYPYVAREQRCRRPNSQHYGISNYCQIYPPDVKQIREALTQTHTAIAVIIGIKDLRAFQHYDGRTIIQHDNGYQPNYHAVNIVGYGSTQGVDYWIVRNSWDTTWGDSGYGYFQAGNNLMMIEQYPYVVIM
- OD, bound IgE ([3]; Table 3, sera 429, PDerf1303b preparation number A166-26, PDerf1223b preparation 1000-7): 63 OD multiplied by 1000
- OD, bound IgE ([3]; Table 3, sera 1916, PDerf1303b preparation number A166-26, PDerf1223b preparation 1000-7): 0 OD multiplied by 1000
- OD, bound IgE ([3]; Table 3, sera 3848, PDerf1303b preparation number A166-26, PDerf1223b preparation 1000-7): 1253 OD multiplied by 1000
- OD, bound IgE ([3]; Table 3, sera 3958, PDerf1303b preparation number A166-26, PDerf1223b preparation 1000-7): 1224 OD multiplied by 1000
- OD, bound IgE ([3]; Table 3, sera 3960, PDerf1303b preparation number A166-26, PDerf1223b preparation 1000-7): 634 OD multiplied by 1000
- OD, bound IgE ([3]; Table 3, sera 3961, PDerf1303b preparation number A166-26, PDerf1223b preparation 1000-7): 301 OD multiplied by 1000
- OD, bound IgE ([3]; Table 3, sera 3987, PDerf1303b preparation number A166-26, PDerf1223b preparation 1000-7): 1078 OD multiplied by 1000
- OD, bound IgE ([3]; Table 3, sera 4467, PDerf1303b preparation number A166-26, PDerf1223b preparation 1000-7): 432 OD multiplied by 1000
- OD, bound IgE ([3]; Table 3, sera 5207, PDerf1303b preparation number A166-26, PDerf1223b preparation 1000-7): 1096 OD multiplied by 1000
- OD, bound IgE ([3]; Table 3, sera human pool, PDerf1303b preparation number A166-26, PDerf1223b preparation 1000-7): 774 OD multiplied by 1000
